From paper PMC3432581 (Methods in molecular biology (Clifton, N.J.), 2011)

Target: the molecule itself
Assay: FRET or BRET

B1: CCAAT/Enhancer Binding Protein α (C/EBPα) (natural protein, UniProt P05554 244-358, looked up)
chain: GPGGSLKGLAGPHPDLRTGGGGGGGAGAGKAKKSVDKNSNEYRVRRERNNIAVRKSRDKAKQRNVETQQKVLELTSDNDRLRKRVEQLSRELDTLRGIFRQLPESSLVKAMGNCA
BRET ratio (Y ÷ B): 0.39
